# T1: His-SUMO-tagged SARS-CoV-2 nsp14 N-terminal ExoN domain (residues 1 to 289) (SARS-CoV-2)
# T1 chain: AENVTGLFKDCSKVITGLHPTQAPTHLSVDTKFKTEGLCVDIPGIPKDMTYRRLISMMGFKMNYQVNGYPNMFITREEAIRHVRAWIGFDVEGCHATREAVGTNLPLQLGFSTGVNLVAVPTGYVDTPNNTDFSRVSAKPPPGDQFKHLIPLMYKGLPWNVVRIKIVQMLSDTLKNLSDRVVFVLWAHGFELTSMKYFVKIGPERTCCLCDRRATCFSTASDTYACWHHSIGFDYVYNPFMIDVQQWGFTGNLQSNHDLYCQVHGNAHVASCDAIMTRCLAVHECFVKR
# B1: SARS-CoV-2 non-structural protein 10 (nsp10), full-length, without affinity tag (natural protein)
# chain: AGNATEVPANSTVLSFCAFAVDAAKAYKDYLASGGQPITNCVKMLCTHTGTGQAITVTPEANMDQESFGGASCCLYCRCHIDHPNPKGFCDLKGKYVQIPTTCANDPVGFTLKNTVCTVCGMWKGYGCSCDQLREPMLQ
# Molecular target: T1, His-SUMO-tagged SARS-CoV-2 nsp14 …
# Test: MST
# Details: both partners purified
binder,measurement,value
B1,Kd,0.9 ± 0.3 µM

# Source: publication PMC8729259 (RSC Chemical Biology, 2021)
